The text below walks through data of patent publication US20100260765A1 (AstraZeneca / MedImmune, published 2010).

The target in assay [1] is T1, soluble KDR extracellular domain (ECD) (Calbiochem) (human, UniProt P35968 20-764).
T1 construct: extracellular domain; Bought protein; also called KDR-ECD; VEGF Receptor 2 D1-7, Cat. #676490
In words: High Antigen ELISA, KDR coat 500 ng/mL, supernatant 1:675. A general note: In an ELISA, binding on a coated surface is turned into a signal by an enzyme label.

The target of assay [2] is T1, soluble KDR extracellular domain (ECD) …. In words: Limited Antigen ELISA, KDR coat 25 ng/mL, supernatant 1:25. Here is the method:
(§1) Samples containing one concentration of antibody (Ab) (1:25 dilution) were incubated overnight to allow Ab binding to approach equilibrium. The low antigen concentration limited the effect of antibody concentration, allowing ranking of the antibodies based on their relative affinity.

Assay [3] has the same target. Put plainly: High Antigen ELISA, KDR coat 500 ng/mL, supernatant 1:225.
Assay [4] addresses KDR endogenously expressed on human umbilical vein endothelial cells (HUVEC) (human, UniProt P35968 20-1356). In words: cell-based or functional assay.
In assay [5] the target is T1, soluble KDR extracellular domain (ECD) …. In words: High Antigen ELISA, KDR coat 500 ng/mL, supernatant 1:25.
For assay [6] the target is unchanged. Put plainly: High Antigen ELISA, KDR coat 500 ng/mL, supernatant 1:75.
Assay [7] has the same target. Put plainly: Limited Antigen ELISA, KDR coat 3.125 ng/mL, supernatant 1:25. Here is the method:
as §1

Assay [8] shares this target. Put plainly: Limited Antigen ELISA, KDR coat 12.5 ng/mL, supernatant 1:25. The protocol:
as §1

For assay [9] the target is unchanged. In words: High Antigen ELISA, KDR coat 500 ng/mL, supernatant 1:6075.
Assay [10] shares this target. Put plainly: High Antigen ELISA, KDR coat 500 ng/mL, supernatant 1:18,225.
For assay [11] the target is unchanged. Put plainly: Limited Antigen ELISA, KDR coat 50 ng/mL, supernatant 1:25. Here is the method: as §1
The target is the same in assay [12]. Put plainly: Limited Antigen ELISA, KDR coat 6.25 ng/mL, supernatant 1:25. Here is the method:
as §1

Assay [13] shares this target. In words: High Antigen ELISA, KDR coat 500 ng/mL, supernatant 1:2025.

KDR endogenously expressed on human umbilical vein endothelial cells (HUVEC), sequence (P35968 20-1356): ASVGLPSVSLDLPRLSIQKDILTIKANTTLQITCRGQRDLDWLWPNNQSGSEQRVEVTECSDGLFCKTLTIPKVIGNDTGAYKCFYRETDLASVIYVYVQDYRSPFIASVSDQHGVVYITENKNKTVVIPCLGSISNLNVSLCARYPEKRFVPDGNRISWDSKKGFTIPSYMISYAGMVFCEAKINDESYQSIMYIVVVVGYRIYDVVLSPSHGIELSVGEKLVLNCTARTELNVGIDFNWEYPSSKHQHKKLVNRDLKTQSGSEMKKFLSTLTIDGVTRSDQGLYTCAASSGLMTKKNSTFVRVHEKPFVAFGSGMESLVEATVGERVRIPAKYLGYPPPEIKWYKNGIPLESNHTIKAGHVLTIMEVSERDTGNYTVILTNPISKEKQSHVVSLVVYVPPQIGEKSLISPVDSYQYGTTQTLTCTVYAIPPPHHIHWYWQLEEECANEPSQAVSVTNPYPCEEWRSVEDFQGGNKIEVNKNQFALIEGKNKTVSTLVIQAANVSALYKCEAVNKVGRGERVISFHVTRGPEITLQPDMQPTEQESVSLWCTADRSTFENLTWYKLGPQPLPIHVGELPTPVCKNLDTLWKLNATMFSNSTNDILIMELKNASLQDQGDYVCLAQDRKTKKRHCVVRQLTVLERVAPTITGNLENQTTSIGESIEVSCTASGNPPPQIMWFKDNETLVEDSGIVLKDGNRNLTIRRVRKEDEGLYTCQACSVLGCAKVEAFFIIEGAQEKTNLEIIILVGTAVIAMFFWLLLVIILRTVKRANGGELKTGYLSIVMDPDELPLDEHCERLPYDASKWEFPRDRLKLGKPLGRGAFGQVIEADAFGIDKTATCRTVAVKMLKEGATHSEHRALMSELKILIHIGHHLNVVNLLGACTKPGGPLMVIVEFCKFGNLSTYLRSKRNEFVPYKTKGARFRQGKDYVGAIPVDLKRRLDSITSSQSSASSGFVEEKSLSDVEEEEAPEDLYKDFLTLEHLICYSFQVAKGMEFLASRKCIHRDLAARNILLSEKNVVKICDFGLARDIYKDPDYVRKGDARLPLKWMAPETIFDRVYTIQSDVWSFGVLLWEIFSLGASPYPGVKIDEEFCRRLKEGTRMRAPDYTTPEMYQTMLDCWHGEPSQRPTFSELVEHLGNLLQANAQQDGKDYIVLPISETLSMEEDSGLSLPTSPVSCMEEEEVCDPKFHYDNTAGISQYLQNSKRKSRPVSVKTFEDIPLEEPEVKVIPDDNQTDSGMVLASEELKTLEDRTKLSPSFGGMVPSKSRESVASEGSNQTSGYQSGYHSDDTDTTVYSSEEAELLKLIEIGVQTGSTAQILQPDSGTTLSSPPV
T1 sequence (P35968 20-764): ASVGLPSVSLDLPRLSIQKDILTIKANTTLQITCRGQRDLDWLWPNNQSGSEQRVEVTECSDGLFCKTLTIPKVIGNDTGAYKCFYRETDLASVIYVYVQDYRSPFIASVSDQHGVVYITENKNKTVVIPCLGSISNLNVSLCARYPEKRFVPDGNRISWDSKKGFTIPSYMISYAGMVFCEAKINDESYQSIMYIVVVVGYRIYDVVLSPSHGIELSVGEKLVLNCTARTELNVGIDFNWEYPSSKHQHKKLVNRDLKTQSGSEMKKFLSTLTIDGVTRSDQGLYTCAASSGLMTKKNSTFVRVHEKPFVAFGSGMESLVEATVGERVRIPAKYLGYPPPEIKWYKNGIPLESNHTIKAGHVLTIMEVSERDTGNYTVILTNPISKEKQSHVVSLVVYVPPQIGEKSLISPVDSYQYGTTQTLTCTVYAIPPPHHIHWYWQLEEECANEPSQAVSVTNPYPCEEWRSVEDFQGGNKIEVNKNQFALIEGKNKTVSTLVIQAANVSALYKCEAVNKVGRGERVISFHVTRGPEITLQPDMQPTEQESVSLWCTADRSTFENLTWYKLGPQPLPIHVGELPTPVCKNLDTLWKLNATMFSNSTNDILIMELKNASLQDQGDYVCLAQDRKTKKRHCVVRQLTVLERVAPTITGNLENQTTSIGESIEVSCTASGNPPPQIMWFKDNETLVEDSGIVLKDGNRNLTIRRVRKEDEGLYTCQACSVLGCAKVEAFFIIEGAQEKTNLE

B1: 30F6 (antibody, V domains shown)
VH: QVQLVESGGGVVQPGRSLRLSCAASGFTFSTYGMHWVRQAPGKGLEWVAVIWYDGSNKYYADSVKGRFTISRDNSKNTLYLQMNSLRAEDTAVYYCACSYWNDDYYYGMDVWGQGTTVTVSS
VL: DIQMTQSPSSLSASVGDRVIITCRASQNISSYLIWYQQKPGKAPNLLIHTTSSLQRGVPSRFSGSGSGTDFTLTISSLQPEDFATYYCQQSYSAPLTFGGGTKVEIK
notes: Fully human mAb from XenoMouse hybridoma, tested as hybridoma supernatant
Regarding B1, the ELISA reading in assay [1] stood at 0.93; in assay [2], 0.31; in [3], 2.42; in [5] it was 3.04; in [6], 3.12; in assay [7] it was 0.1. Further, the ELISA reading in assay [8] came to 0.25; in [9], 0.16; in [10], 0.09; in [11], 0.52; in assay [12] it was 0.13; in assay [13], 0.35. Besides, the “VEGF-E-mediated Survival % Inhibition (Average)” value in assay [4] was 37%. For the same molecule, the “VEGF-E-mediated Survival % Inhibition (n = 1)” value in assay [4] was 31%. Besides, in [4], the “VEGF-E-mediated Survival % Inhibition (n = 2)” value stood at 43%.

B2: 31E11 (antibody, V domains shown)
VH: QVQLVESGGGLVKPGGSLRLSCAASGFTFSDYYMSWIRQAPGKGLEWVSYISISGSTIYYADSVKGRFTISRDNAKNSLYLQMNSLRAEDTAVYYCARDDFWSGYYFNWFDPWGQGTLVTVSS
VL: DIQMTQSPSSLSASVGDRVTITCRANQTISTFLNWYQQNPGKAPKLLIYAASSLQSGVPSRFSGSGSGTDFTLTISSLQPEDFATYYCQQTYIIPLTFGGGTKVEIK
notes: as for B1
Take B2: the ELISA reading stood at 3.6 in [1]; 1.24 in assay [2]; 4.61 in assay [3]; 4.48 in assay [5]; 6 in assay [6]; 0.2 in assay [7]. In addition, the ELISA reading was 0.68 in assay [8]; 0.62 in assay [9]; 0.31 in [10]; 2.37 in assay [11]; 0.39 in [12]; 1.81 in assay [13]. In assay [4], the “VEGF-E-mediated Survival % Inhibition (Average)” value was determined as 55%. Also, the “VEGF-E-mediated Survival % Inhibition (n = 1)” value in [4] was 56%. The “VEGF-E-mediated Survival % Inhibition (n = 2)” value in [4] stood at 54%.

B3: 33C3 (antibody, V domains shown)
VH: QVQLVESGGGLVKPGESLRLSCAASGFTFSDYYMSWIRQAPGKGLEWVSYISHGGSTIYYADSVKGRFTISRDNAKNSLYLQMNSLRVEDTAVYFCARDDFWSGYYFNWFDPWGQGALVTVSS
VL: DIQMTQYPLSLSASVGDRVTITCRASQSISSFLNWYHQKPGKAPKLLIYGTSSLQSGVPSRFSGSGSGTDFTLTISSLQPEDFATYYCQQTYSIPLTFGGGTNVEIK
notes: as for B1
On to B3, for which the ELISA reading in assay [1] was 2.55; in assay [2], 1.32; in assay [3], 4.31; in assay [5] it was 4.96; in [6] it was 4.96; in assay [7], 0.2. Also, the ELISA reading in assay [8] is 0.72; in assay [9] it was 0.31; in assay [10], 0.18; in assay [11] it was 3; in [12] it was 0.37; in [13], 0.84. Besides, the “VEGF-E-mediated Survival % Inhibition (Average)” value in [4] was 74%. Further, the “VEGF-E-mediated Survival % Inhibition (n = 1)” value in assay [4] was 78%. Further, in assay [4], the “VEGF-E-mediated Survival % Inhibition (n = 2)” value was determined as 69%.

B4: 33E1 (antibody, V domains shown)
VH: QVQLQESGPGLVKPSQTLSLTCTVSGGSISSGDHYWSWIRQHPGKGLEWIGHIYYSGSTDYNPSLKSRVTISVDTSKNHFSLKLNSVTAADTAVYYCARTNSSSWSDWYFDLWGRGTLVTVSS
VL: DIVMTQSPDSLAVSLGERATINCKSSQSILYSSNNKNYLAWYQRKPGQPPILLIHWASTRESGVPDRFSGSGSRTDFTLTISSLQAEDVAVYYCQQYFITPWTFGQGTKVEIK
notes: as for B1
For the molecule B4, the ELISA reading in [1] amounted to 3.51; in assay [2] it was 0.36; in [3], 4.07; in assay [5], 4.06; in assay [6] it was 4.24; in assay [7], 0.07. The ELISA reading in [8] came to 0.15; in assay [9] it was 0.98; in [10], 0.49; in assay [11], 0.85; in assay [12] it was 0.11; in assay [13], 2.09. Besides, the “VEGF-E-mediated Survival % Inhibition (Average)” value in assay [4] came to 60%. Further, the “VEGF-E-mediated Survival % Inhibition (n = 1)” value in assay [4] came out at 66%. The “VEGF-E-mediated Survival % Inhibition (n = 2)” value in [4] worked out at 54%.

B5: 30H10 (antibody, V domains shown)
VH: EVQLLESGGGLVQPGGSLRLSCAASGFTFSNYAMSWVRQAPGKGLEWVSAISGSGGITYYADSVKGRFTISRDNSKNTLFLQMNSLRAEDTAVYYCAKASGDNWGQGTLVSVSS
VL: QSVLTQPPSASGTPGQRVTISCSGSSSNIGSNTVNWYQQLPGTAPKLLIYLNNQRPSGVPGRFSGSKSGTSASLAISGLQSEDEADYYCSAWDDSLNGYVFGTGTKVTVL
notes: as for B1
With B5, the ELISA reading was determined as 4.61 in [1]; 1.18 in [2]; 6 in [3]; 4.42 in [5]; 6 in assay [6]; 0.17 in assay [7]. The ELISA reading in assay [8] was found to be 0.52; in [9], 1.18; in [10], 0.64; in assay [11], 2.21; in assay [12], 0.31; in assay [13], 2.52. Further, the “VEGF-E-mediated Survival % Inhibition (Average)” value in assay [4] was -10%. The “VEGF-E-mediated Survival % Inhibition (n = 1)” value in assay [4] is -21%. Also, the “VEGF-E-mediated Survival % Inhibition (n = 2)” value in assay [4] came to 2%.

B6: 32C11 (antibody, V domains shown)
VH: EVQLLESGGTLVQPGGSLRLSCAASGFTFSNYAMSWVRQAPGKGLEWVSAISGRAGSTYYADSVKGRFTISRDNSKNTLFLQMNSLRAEDTAVYYCAKASGDDWGQGTLVTVSS
VL: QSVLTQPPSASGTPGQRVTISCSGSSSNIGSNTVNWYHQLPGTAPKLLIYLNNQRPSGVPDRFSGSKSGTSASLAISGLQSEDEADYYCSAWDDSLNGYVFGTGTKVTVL
notes: as for B1
For the molecule B6, the ELISA reading was 2.02 in [1]; 1.12 in assay [2]; 4.28 in assay [3]; 4.36 in assay [5]; 6 in assay [6]; 0.2 in assay [7]. For the same molecule, the ELISA reading in assay [8] amounted to 0.69; in [9], 0.27; in assay [10] it was 0.14; in assay [11], 2.48; in assay [12], 0.35; in assay [13], 0.82. In addition, the “VEGF-E-mediated Survival % Inhibition (Average)” value in assay [4] was determined as 6%. Further, in assay [4], the “VEGF-E-mediated Survival % Inhibition (n = 1)” value came out at 5%. In addition, the “VEGF-E-mediated Survival % Inhibition (n = 2)” value in [4] is 7%.
